Source: the MegaScale stability set (Tsuboyama et al. 2023)

B1: EEHEE_rd4_0763 (parent)
chain: LTVHVGNVTYHFDNPEQAEEWAKRMAKKYQGQIHVKDGQFRIE

Variants of: B1
Assay: folding stability dG (cDNA display proteolysis); higher = more stable
Conditions: PBS, room temperature

Folding stability dG [kcal/mol]: each site, then its substitutions
V5: Q 0.495 | Y 1.41 | C 2.66 | I 1.69 | F 1.74 | M 1.48 | N 0.616 | H 1.26
H11: M 1.49 | P 0.551 | S 1.43 | Q 1.45 | D 0.923 | V 1.61 | Y 1.85
F40: R 1 | E 1.15 | S 1.03 | I 2.25 | V 1.55 | D 1.03 | L 2.01
K23: L 1.69 | F 1.61 | P -0.41 | V 1.56 | N 1.38 | Q 1.55 | E 1.2 | G 1.02 | S 1.16
Q30: I 1.18 | D 1.52 | H 2.02 | K 1.92 | T 1.2 | F 1.43 | A 1.64
A26: P 0.273 | S 1.14 | Y 1.15 | F 1.3 | V 1.09 | H 0.862 | Q 0.967 | R 1.06
V35: F 2.22 | G 0.956 | L 1.62 | M 1.61 | S 1.15 | C 2.27 | A 0.96 | T 1.18
N7: D 1.41 | V 1.4 | K 1.65 | E 1.37 | H 1.69 | A 1.6 | M 1.57 | W 1.65
E19: I 1.87 | D 1.06 | R 1.69 | S 1.39 | G 1.21 | P 0.646 | C 2.53
K28: D 0.954 | P 0.519 | C 2.59 | Q 1.35 | I 1.61 | M 1.5 | T 1.03 | A 1.23 | E 1.37 | W 1.6 | G 0.692
T9: A 1.58 | V 1.98 | Q 1.29 | G 0.696 | M 1.55 | S 1.4 | R 1.4 | I 1.92 | N 0.836 | F 1.37
Q32: E 1.56 | L 1.48 | C 1.93 | P 0.998 | K 1.71 | D 1.27 | A 1.52 | V 2.02
F12: Q -0.143 | G -0.264 | A 0.274 | V 0.101 | E -0.274 | L 0.531 | W 0.638 | I 0.276
M25: D -0.162 | I 1.44 | S 0.407 | E 0.535 | V 1.23 | R 0.567 | Q 0.839 | H 0.756 | P -0.51 | W 1.34 | T 0.731
Y29: E 0.616 | K 0.706 | F 1.53 | R 0.723 | D 0.496 | P 0.306
E20: W 1.92 | L 1.69 | G 1.18 | F 1.57 | S 1.62 | Q 1.69 | C 2.44 | M 1.7
H4: R 1.82 | Y 1.59 | L 1.88 | I 1.9 | W 1.82 | K 1.68 | N 1.27
Y10: N 0.135 | G 0.153 | T 0.369 | I 0.978 | R 1.18 | A 0.513 | K 0.806 | W 1.85 | V 0.913 | S 0.143
I33: Q 0.795 | E 0.735 | G 0.819 | R 0.644 | K 0.715 | C 2.07 | S 0.865 | W 1.34 | A 1.03 | H 0.852
I42: K 0.942 | Y 1.12
N14: W 1.24 | P -0.002 | F 1.47 | A 1.42 | G 1.03 | E 1.36
D13: L 1.51 | Q 1.57 | S 1.7 | G 1.37 | T 1.74 | K 1.67 | P 1.45 | I 1.48 | N 1.72 | C 2.24
T2: H 1.53 | Y 1.59 | A 1.51 | Q 1.53 | I 1.59
Q17: G 1.11 | M 1.61 | Y 1.53 | N 1.38 | H 1.54 | R 1.57 | L 1.71 | D 1.8 | S 1.64
P15: K 1.78 | S 1.69 | N 1.38 | A 1.7
A22: K 0.757 | G 0.659 | D -0.159 | V 1.23 | P -0.823 | W 1.27 | N 0.383 | L 1.36 | S 0.821
V8: S 1.37 | Y 1.78 | R 1.96 | D 1.19 | P 0.43 | N 1.41 | H 1.72
G38: W 0.872 | I 0.869 | A 0.755 | P 1.18 | T 0.621 | C 2.15 | D 1.25 | S 0.873
G6: L 1.47 | Y 1.5 | N 1.71 | H 1.69 | C 2.58 | T 0.772 | R 1.31 | I 1.18
A18: S 0.551 | R 0.882 | F 1.46 | G 1.25 | P -0.12 | N 0.045 | Y 1.17 | T 0.517 | D 0.132
R41: G 1.3 | P 1.21 | W 3.13 | S 1.57 | Y 3.29 | C 2.95 | E 1.59
V3: H 0.452 | Y 0.756 | G 0.606 | K 0.424
R24: M 1.85 | V 1.58 | D 0.976 | T 1.45 | N 1.09 | K 1.63
E43: H 1.44 | M 1.5 | T 1.66 | A 1.34 | V 1.99 | R 1.36
E16: M 1.66 | Y 1.66 | G 1.48 | H 1.85 | W 1.67 | D 1.59 | S 1.61 | R 1.74 | N 1.56 | L 1.68 | K 1.77 | F 1.63 | I 1.66
Q39: L 0.835 | W 1.24 | P 0.884 | C 2.92 | E 1.88 | K 1.23
K36: I 2.15 | R 1.51 | F 1.79 | Q 1.79 | V 2.24 | A 1.49 | M 1.67
D37: C 2.15 | A 0.671 | M 0.773 | F 0.868 | E 1.23 | V 0.669 | Q 0.814 | T 0.617
W21: E 0.341 | A 0.89 | Q 0.239 | N 0.008 | H 0.696 | K -0.246 | L 0.668 | C 2.55
L1: I 1.7 | A 2.1 | E 0.877
K27: I 1.76 | F 1.57 | G 1.13 | W 1.45 | V 1.6 | C 2.38 | L 1.75 | Y 1.51 | A 1.83
H34: K 1.6 | T 2.03 | F 1.87 | Y 1.79 | P 0.852 | G 1 | V 2.26 | E 1.5 | I 2.21 | Q 1.61 | R 1.55
G31: W 1.86 | F 1.69 | R 1.07 | C 2.42 | Q 1.25 | T 1.52 | D 0.903 | H 1.46 | Y 1.37 | A 1.86 | K 1.24
